In the experiment the target is T1, Msn5_(βC-helix-tail) (residues 1179-1224 removed) (S. cerevisiae, UniProt P52918 1-1178).
T1 sequence (looked up): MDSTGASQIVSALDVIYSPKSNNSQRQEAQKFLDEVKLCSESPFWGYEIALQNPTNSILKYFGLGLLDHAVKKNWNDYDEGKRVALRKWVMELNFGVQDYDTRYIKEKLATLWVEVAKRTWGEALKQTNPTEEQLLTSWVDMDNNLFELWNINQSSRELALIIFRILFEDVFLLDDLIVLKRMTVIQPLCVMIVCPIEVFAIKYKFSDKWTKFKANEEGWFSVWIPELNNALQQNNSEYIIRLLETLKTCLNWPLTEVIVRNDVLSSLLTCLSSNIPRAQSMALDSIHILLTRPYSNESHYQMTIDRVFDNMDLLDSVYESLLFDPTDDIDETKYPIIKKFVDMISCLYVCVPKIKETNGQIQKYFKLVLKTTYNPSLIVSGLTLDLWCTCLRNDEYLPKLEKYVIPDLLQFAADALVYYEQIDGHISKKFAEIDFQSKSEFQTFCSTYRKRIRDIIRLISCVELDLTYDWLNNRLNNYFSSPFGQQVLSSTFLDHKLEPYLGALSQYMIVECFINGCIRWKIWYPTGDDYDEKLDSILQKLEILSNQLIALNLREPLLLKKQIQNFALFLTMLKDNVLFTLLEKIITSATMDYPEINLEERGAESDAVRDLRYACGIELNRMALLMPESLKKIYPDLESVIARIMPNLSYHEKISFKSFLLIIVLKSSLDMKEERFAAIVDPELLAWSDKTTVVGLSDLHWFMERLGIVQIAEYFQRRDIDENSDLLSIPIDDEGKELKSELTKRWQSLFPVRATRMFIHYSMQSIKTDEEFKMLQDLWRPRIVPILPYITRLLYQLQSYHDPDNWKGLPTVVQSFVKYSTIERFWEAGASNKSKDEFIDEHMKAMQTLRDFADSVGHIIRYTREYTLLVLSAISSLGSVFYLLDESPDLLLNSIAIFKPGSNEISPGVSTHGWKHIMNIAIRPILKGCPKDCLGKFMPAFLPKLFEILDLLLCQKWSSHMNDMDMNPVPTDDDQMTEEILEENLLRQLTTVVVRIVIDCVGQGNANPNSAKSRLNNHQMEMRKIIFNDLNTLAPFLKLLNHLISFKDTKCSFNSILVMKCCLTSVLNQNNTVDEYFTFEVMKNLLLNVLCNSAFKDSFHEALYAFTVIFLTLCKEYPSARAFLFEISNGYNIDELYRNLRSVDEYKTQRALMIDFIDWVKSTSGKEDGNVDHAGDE
Put plainly: pull-down.

B1: GST-pPho4_(1-200) (domain or fragment, S. cerevisiae, UniProt P07270 1-200, looked up)
chain: MGRTTSEGIHGFVDDLEPKSSILDKVGDFITVNTKRHDGREDFNEQNDELNSQENHNSSENGNENENEQDSLALDDLDRAFELVEGMDMDWMMPSHAHHSPATTATIKPRLLYSPLIHTQSAVPVTISPNLVATATSTTSANKVTKNKSNSSPYLNKRRGKPGPDSATSLFELPDSVIPTPKPKPKPKQYPKVILPSNST
modifications: phosphoserine at 100, 114, 128, 152 (in vitro phosphorylation by Pho80-Pho85)
Turning to B1, the binding result is “binds”.

For the origin of these results see publication doi:10.1101/2024.08.12.607649 (bioRxiv, 2024).
